Kd, koff and kon data for 3 substances are collected here from article PMC10119932.

In the assay the target is Human FcRn (human) (UniProt P55899). Description: BLI; human FcRn immobilised, antibody or ADC as analyte; performed as previously reported (refs. 35, 36); no conditions told.
Chain of UniProt P55899 (P55899 24-365): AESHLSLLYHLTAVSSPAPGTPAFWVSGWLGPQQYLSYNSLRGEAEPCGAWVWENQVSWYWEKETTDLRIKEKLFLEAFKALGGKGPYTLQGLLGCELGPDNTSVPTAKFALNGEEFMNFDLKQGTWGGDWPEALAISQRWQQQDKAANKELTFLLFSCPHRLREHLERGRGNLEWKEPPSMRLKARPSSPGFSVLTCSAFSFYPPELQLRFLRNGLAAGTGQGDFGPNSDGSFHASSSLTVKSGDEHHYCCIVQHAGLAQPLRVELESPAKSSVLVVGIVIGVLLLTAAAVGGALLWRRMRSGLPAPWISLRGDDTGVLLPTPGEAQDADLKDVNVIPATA
Take “Trastuzumab (Herceptin), human IgG1 (antibody)”: the Kd (as a rule, a measure of binding affinity in units of concentration) turned out to be 5.65 nM; the off-rate (koff) (commonly a measure of how fast the partners let go of each other) stood at 0.00377 s⁻¹; the kon (commonly the rate constant with which the complex forms) amounted to 667000 M⁻¹ s⁻¹.
The corresponding values for Trastuzumab-K248-MMAE (5a) (antibody) are 5.6 nM, 0.000848 s⁻¹ and 152000 M⁻¹ s⁻¹.
For Trastuzumab-K288-MMAE (5b) (antibody), the Kd came out at 7.22 nM, the koff was found to be 0.00383 s⁻¹ and the kon was 530000 M⁻¹ s⁻¹.
